Data on nine molecules can be found in US20220169677A1 (INSERM INSTITUT NATIONAL DE LA SANTE ET DE LA RECHERCHE …, published 2022).

Sequences and labels used below:
T1: recombinant human NRP-1 (human, UniProt O14786-2 22-644, limits assumed)
T1 construct: Coated on a 96-well plate at 200 ng/well; GenBank AAC51759.1 is printed only as the preferred definition of NRP-1; also called Neuropilin-1
T1 sequence (looked up): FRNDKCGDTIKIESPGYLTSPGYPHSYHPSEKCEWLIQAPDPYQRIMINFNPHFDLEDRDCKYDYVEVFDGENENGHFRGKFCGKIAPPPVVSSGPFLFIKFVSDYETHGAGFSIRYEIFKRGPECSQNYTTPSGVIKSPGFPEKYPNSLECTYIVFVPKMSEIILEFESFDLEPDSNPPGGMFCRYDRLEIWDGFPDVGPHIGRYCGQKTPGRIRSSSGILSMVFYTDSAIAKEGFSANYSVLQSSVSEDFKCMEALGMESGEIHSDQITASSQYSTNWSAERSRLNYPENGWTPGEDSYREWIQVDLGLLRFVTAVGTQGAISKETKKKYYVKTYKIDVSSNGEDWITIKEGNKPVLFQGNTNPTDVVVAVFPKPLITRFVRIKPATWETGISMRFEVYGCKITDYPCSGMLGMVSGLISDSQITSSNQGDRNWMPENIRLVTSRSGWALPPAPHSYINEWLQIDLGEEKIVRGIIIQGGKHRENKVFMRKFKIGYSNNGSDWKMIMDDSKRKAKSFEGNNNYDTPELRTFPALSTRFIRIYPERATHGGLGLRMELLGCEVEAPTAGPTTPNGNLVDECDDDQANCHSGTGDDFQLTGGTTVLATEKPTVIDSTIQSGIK

B1: H2N-Cys-Leu-Pro-Pro-Arg-OH (peptide)
peptide: H-CLPPR-OH
notes: LPPR (active part of A7R) with an added N-terminal Cys; also called CLPPR
B2: H2N-Cys-Lys-Pro-Arg-Arg-OH (peptide)
peptide: H-CKPRR-OH
notes: KPRR (peptide derived from the VEGF-A165 C-terminus) with an added N-terminal Cys; also called CKPRR
B3: H2N-Cys-Thr-Lys-Pro-Arg-OH (peptide)
peptide: H-CTKPR-OH
notes: TKPR (tuftsin) with an added N-terminal Cys; also called CTKPR
B4: KPRR (peptide derived from the VEGF-A165) (peptide)
peptide: KPRR
notes: Parent tetrapeptide without Cys; 5
B5: LPPR (active part of A7R) (peptide)
peptide: LPPR
notes: Parent tetrapeptide without Cys; 3

The target of the first assay is T1, recombinant human NRP-1. In words: chemiluminescence competition: inhibition of (bt)-VEGF-A165 binding to coated NRP-1. The method, then:
The flat bottom surface of a 96-well plate was coated with 100 μL (200 ng/well) recombinant human NRP-1 and incubated overnight at 4° C. Non-specific binding was blocked by the incubation with 0.5% BSA in PBS. 50 μL of peptide dissolved in PBS in range concentrations and 50 μL (400 ng/mL) of human (bt)-VEGF-A₁₆₅ in PBS containing 4 μg/mL of heparin were added respectively. After 2 h incubation at room temperature the plate was washed and treated with streptavidin-horseradish peroxidase conjugate in PBS (1:8000). Chemiluminescence was quantified immediately after addition of 100 μL Chemiluminescent substrate. In a positive control only (bt)-VEGF-A₁₆₅ was present in wells, while, in negative control, wells were not coated by NRP-1. Percentages of inhibition were calculated by the following formula: […]
A word on the IC50: it is the midpoint of a concentration-inhibition curve. Consider “H-Cys-Lys(hArg)-Dab-Oic-Arg-OH (peptide)”, for which the IC50 came to 50 nM and the fold decrease in IC50 against the sequence without cysteine was 100 fold.

On to “H-Cys-Lys(hArg)-Dab-ΔPro-Arg-OH (peptide)”, for which the IC50 came out at 70 nM and the fold decrease in IC50 against the sequence without cysteine stood at 100 fold.

As to “H-Lys(Cys-hArg)-Dab-Oic-Arg-OH (peptide)”, the IC50 came to 40 nM and the fold decrease in IC50 against the sequence without cysteine amounted to 100 fold.

On to “H-Lys(Cys-hArg)-Dab-ΔPro-Arg-OH (peptide)”, for which the IC50 was determined as 60 nM and the fold decrease in IC50 against the sequence without cysteine is 100 fold.

Take B1: the IC50 came to 17000 nM.

For the molecule B2, the IC50 was determined as 100 nM.

Turning to B3, the IC50 came out at 19000 nM.

For another assay, the target named is T1, recombinant human NRP-1. The experiment in a line: competition: inhibition of (bt)-VEGF-A165 binding to coated NRP-1.
For the molecule B4, the IC50 is 4500 nM.

With B5, the IC50 worked out at 80000 nM.
